Tests used:
[1] = target: cathepsin B (from THP-1 cell lysates) (UniProt P07858)

cathepsin D, sequence (chain, as listed by the source): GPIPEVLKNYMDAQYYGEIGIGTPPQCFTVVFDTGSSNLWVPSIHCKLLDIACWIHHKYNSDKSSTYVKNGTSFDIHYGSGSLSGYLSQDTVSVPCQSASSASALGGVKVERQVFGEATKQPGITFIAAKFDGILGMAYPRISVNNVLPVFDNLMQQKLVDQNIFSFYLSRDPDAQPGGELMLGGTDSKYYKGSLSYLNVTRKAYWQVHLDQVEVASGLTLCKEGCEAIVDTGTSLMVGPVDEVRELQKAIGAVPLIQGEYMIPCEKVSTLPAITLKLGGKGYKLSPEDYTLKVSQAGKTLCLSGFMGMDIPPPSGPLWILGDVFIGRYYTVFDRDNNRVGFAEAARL
recombinant cystatin C, sequence (chain, as listed by the source): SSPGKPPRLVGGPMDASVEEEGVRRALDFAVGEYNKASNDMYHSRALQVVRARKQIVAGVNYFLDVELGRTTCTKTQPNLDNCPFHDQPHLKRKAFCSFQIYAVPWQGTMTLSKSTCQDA

In the case of cathepsin D, the “cleavage of recombinant cystatin C” value (recombinant cystatin C) was “cathepsin D cleaved cystatin C at four different sites, and yielded a 12.5 kD fragment following cleavage from the C terminal region” and the “cathepsin B activity (fluorogenic Ac-Arg-Arg-AFC assay)” value [1] was “Cathepsin D and MMP-2 alone had no effect on cathepsin B activity”.

Source: patent US20100137420
